The values that follow come from patent publication US20060003931A1.

Experiment [1] addresses Met-IgG fusion protein (Homo sapiens (Human)) (UniProt P08581). Kind of experiment: HGF β/Met-IgG competition ELISA; tracer biotinylated HGF β. For orientation: In an ELISA, binding on a coated surface is turned into a signal by an enzyme label.
The target is the same in experiment [2]. Kind of experiment: HGF β/Met-IgG competition ELISA; tracer 250 nM biotinylated wildtype HGF β.

UniProt P08581, sequence (P08581 25-930 limits assumed, form in doubt): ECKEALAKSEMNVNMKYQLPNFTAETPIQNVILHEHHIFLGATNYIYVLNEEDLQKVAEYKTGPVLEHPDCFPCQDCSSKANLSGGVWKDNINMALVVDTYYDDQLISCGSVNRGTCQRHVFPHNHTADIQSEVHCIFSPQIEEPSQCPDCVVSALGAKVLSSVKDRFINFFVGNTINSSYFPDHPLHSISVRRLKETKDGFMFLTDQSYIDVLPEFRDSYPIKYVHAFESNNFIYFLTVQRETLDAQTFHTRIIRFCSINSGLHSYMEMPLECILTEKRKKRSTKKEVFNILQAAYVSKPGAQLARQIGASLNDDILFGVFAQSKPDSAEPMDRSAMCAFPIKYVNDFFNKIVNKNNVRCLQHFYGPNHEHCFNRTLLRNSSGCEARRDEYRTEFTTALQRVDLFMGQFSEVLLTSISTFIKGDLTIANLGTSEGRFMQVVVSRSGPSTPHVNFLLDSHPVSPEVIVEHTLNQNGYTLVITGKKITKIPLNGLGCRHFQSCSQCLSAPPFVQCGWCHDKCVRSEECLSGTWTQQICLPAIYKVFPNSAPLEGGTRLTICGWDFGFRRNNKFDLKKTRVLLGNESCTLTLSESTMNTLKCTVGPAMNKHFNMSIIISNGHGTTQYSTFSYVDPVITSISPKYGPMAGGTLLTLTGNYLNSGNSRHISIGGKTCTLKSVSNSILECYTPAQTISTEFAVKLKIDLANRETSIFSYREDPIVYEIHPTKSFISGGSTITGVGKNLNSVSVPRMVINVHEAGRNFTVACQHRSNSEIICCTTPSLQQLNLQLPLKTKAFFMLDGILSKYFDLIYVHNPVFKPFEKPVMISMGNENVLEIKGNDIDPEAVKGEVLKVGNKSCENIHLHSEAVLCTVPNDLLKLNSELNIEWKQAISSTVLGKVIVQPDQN

For the substance “proHGF β (HGF residues Asn479 to Ser728 with R494E) (from UniProt P14210 479-728) (ligand)”, in experiment [1], the relative IC50 (normalized to HGF β) (relative to HGF β) worked out at 21. In experiment [2], this substance showed a concentration for half-maximal inhibition (IC50) of 11.6 µM and a fold reduced binding against HGF β of 13.5 fold.

As a reminder, the IC50 is the point on the concentration scale where inhibition reaches its midpoint. High values mean weaker potency in that assay, low ones greater potency in that assay.
